What is called Kd is a measure of binding affinity in units of concentration. A higher Kd goes with a looser complex.

Here are results for 23 molecules from patent US20250188189A1 (published 2025).

The chains are these.
B1: TPP-26882 (antibody, V domains shown)
VH: EVQLVESGGGLVQPGGSLRLSCAASGFTFSNYYMNWVRQAPGKGLEWVGRIKSKTDGGTTDYAAPVKGRFTISRDDSKNSLYLQMNSLKTEDTAVYYCAREGDYFDYWGQGTLVTVSS
VL: EIVLTQSPGTLSLSPGERATLSCRASQSVSSFGATFMHWYQQKPGQPPKLLIYLASNRASGVPDRFSGSGSGTDFTLTINPVEADDTANYYCQQNNEDPYTFGQGTKLEIKR
B2: TPP-26870 (antibody, V domains shown)
VH: EVQLVESGGGLVQPGGSLRLSCAASGFTFSNYYMNWVRQAPGKGLEWVSYISSSSSTIYYADSVKGRFTISRDDSKNSLYLQMNSLKTEDTAVYYCAREGDYFDYWGQGTLVTVSS
VL: EIVLTQSPGTLSLSPGERATLSCRASQSVSSFGATFMHWYQQKPGQPPKLLIYLASNRASGVPDRFSGSGSGTDFTLKISRVEAEDVGVYYCQQNNEDPYTFGQGTKLEIKR
B3: TPP-26874 (antibody, V domains shown)
VH: EVQLVESGGGLVQPGGSLRLSCAASGFTFSNYYMNWVRQAPGKGLEWVSYISSSSSTIYYADSVKGRFTISRDDSKNSLYLQMNSLKTEDTAVYYCAREGDYFDYWGQGTLVTVSS
VL: DIVLTQSPASLAVSPGQRATITCKASQSVSSFGATFMHWYQQKPGQPPKLLIYLASNRASGVPDRFSGSGSGTDFTLKISRVEAEDVGVYYCQQNNEDPYTFGQGTKLEIKR
B4: TPP-26862 (antibody, V domains shown)
VH: EVQLVESGGGLVQPGGSLRLSCAASGFTFSNYYMNWVRQAPGKGLEWVSYISSSSSTIYYADSVKGRFTISRDDSKNSLYLQMNSLKTEDTAVYYCAREGDYFDYWGQGTLVTVSS
VL: DIVMTQSPLSLPVTPGEPASISCRSSESVDSFGATFMHWYQQKPGQPPKLLIYLASNRASGVPDRFSGSGSGTDFTLKISRVEAEDVGVYYCQQNNEDPYTFGQGTKLEIKR
B5: TPP-26864 (antibody, V domains shown)
VH: EVQLVESGGGLVQPGGSLRLSCAASGFTFSNYYMNWVRQAPGKGLEWVSYISSSSSTIYYADSVKGRFTISRDDSKNSLYLQMNSLKTEDTAVYYCAREGDYFDYWGQGTLVTVSS
VL: EIVLTQSPGTLSLSPGERATLSCRASESVDSFGATFMHWYLQKPGQSPQLLIYLASNRASGVPDRFSGSGSGTDFTLKISRVEAEDVGVYYCQQNNEDPYTFGQGTKLEIKR
B6: TPP-26894 (antibody, V domains shown)
VH: EVQLVESGGGLVQPGGSLRLSCAASGFTFSNYYMNWVRQAPGQGLEWMGRIIPILGIANYAQKFQGRFTISRDDSKNSLYLQMNSLKTEDTAVYYCAREGDYFDYWGQGTLVTVSS
VL: EIVLTQSPGTLSLSPGERATLSCRASQSVSSFGATFMHWYLQKPGQSPQLLIYLASNRASGVPDRFSGSGSGTDFTLKISRVEAEDVGVYYCQQNNEDPYTFGQGTKLEIKR
B7: TPP-26863 (antibody, V domains shown)
VH: EVQLVESGGGLVQPGGSLRLSCAASGFTFSNYYMNWVRQAPGKGLEWVSYISSSSSTIYYADSVKGRFTISRDDSKNSLYLQMNSLKTEDTAVYYCAREGDYFDYWGQGTLVTVSS
VL: DIVMTQSPLSLPVTPGEPASISCRSSESVDSFGATFMHWYLQKPGQSPQLLIYLASNRASGVPDRFSGSGSGTDFTLKISRVEAEDVGVYYCQQNNEDPYTFGQGTKLEIKR
B8: TPP-26869 (antibody, V domains shown)
VH: EVQLVESGGGLVQPGGSLRLSCAASGFTFSNYYMNWVRQAPGKGLEWVSYISSSSSTIYYADSVKGRFTISRDDSKNSLYLQMNSLKTEDTAVYYCAREGDYFDYWGQGTLVTVSS
VL: EIVLTQSPGTLSLSPGERATLSCRASQSVSSFGATFMHWYQQKPGQPPKLLIYLASNRASGVPDRFSGSGSGTDFTLTINPVEADDTANYYCQQNNEDPYTFGQGTKLEIKR
B9: TPP-26872 (antibody, V domains shown)
VH: EVQLVESGGGLVQPGGSLRLSCAASGFTFSNYYMNWVRQAPGKGLEWVSYISSSSSTIYYADSVKGRFTISRDDSKNSLYLQMNSLKTEDTAVYYCAREGDYFDYWGQGTLVTVSS
VL: DIVLTQSPASLAVSPGQRATITCKASQSVSSFGATFMHWYLQKPGQSPQLLIYLASNRASGVPDRFSGSGSGTDFTLTINPVEADDTANYYCQQNNEDPYTFGQGTKLEIKR
B10: TPP-26920 (antibody, V domains shown)
VH: EVQLVESGGGLVQPGGSLRLSCAASGFTFSNYYMSWVRQAPGKGLEWVGDIRLKSNNYEKHYAESVKGRFTISRDDSKNSLYLQMNSLKTEDTAVYYCAREGDYFDYWGQGTLVTVSS
VL: EIVLTQSPGTLSLSPGERATLSCRASQSVSSFGATFMHWYLQKPGQSPQLLIYLASNRASGVPDRFSGSGSGTDFTLKISRVEAEDVGVYYCQQNNEDPYTFGQGTKLEIKR
B11: TPP-26924 (antibody, V domains shown)
VH: EVQLVESGGGLVQPGGSLRLSCAASGFTFSNYYMSWVRQAPGKGLEWVGDIRLKSNNYEKHYAESVKGRFTISRDDSKNSLYLQMNSLKTEDTAVYYCAREGDYFDYWGQGTLVTVSS
VL: DIVLTQSPASLAVSPGQRATITCKASQSVSSFGATFMHWYLQKPGQSPQLLIYLASNRASGVPDRFSGSGSGTDFTLTINPVEADDTANYYCQQNNEDPYTFGQGTKLEIKR
B12: TPP-26926 (antibody, V domains shown)
VH: EVQLVESGGGLVQPGGSLRLSCAASGFTFSNYYMSWVRQAPGKGLEWVGDIRLKSNNYEKHYAESVKGRFTISRDDSKNSLYLQMNSLKTEDTAVYYCAREGDYFDYWGQGTLVTVSS
VL: DIVLTQSPASLAVSPGQRATITCKASQSVSSFGATFMHWYQQKPGQPPKLLIYLASNRASGVPDRFSGSGSGTDFTLKISRVEAEDVGVYYCQQNNEDPYTFGQGTKLEIKR
B13: TPP-26934 (antibody, V domains shown)
VH: EVQLVESGGGLVQPGGSLRLSCAASGFTFSNYYINWVRQAPGKGLEWVGDIRLKSNNYEKHYAESVKGRFTISRDDSKNSLYLQMNSLKTEDTAVYYCAREGDYFDYWGQGTLVTVSS
VL: EIVLTQSPGTLSLSPGERATLSCRASQSVSSFGATFMHWYQQKPGQPPKLLIYLASNRASGVPDRFSGSGSGTDFTLTINPVEADDTANYYCQQNNEDPYTFGQGTKLEIKR
B14: TPP-26921 (antibody, V domains shown)
VH: EVQLVESGGGLVQPGGSLRLSCAASGFTFSNYYMSWVRQAPGKGLEWVGDIRLKSNNYEKHYAESVKGRFTISRDDSKNSLYLQMNSLKTEDTAVYYCAREGDYFDYWGQGTLVTVSS
VL: EIVLTQSPGTLSLSPGERATLSCRASQSVSSFGATFMHWYQQKPGQPPKLLIYLASNRASGVPDRFSGSGSGTDFTLTINPVEADDTANYYCQQNNEDPYTFGQGTKLEIKR
B15: TPP-24739 (antibody, V domains shown)
VH: EVQLVESGGGLVQPGGSLRLSCAASGFTFSNYYMNWVRQAPGQGLEWMGRIIPILGIANYAQKFQGRFTISRDDSKNSLYLQMNSLKTEDTAVYYCAREGDYFDYWGQGTLVTVSS
B16: TPP-24743 (antibody, V domains shown)
VH: EVQLVESGGGLVQPGGSLRLSCAASGFTFSNYYMSWVRQAPGQGLEWMGRIIPILGIANYAQKFQGRFTISRDDSKNSLYLQMNSLKTEDTAVYYCAREGDYFDYWGQGTLVTVSS
B17: TPP-24738 (antibody, V domains shown)
VH: EVQLVESGGGLVQPGGSLRLSCAASGFTFSNYYMNWVRQAPGKGLEWVGRIKSKTDGGTTDYAAPVKGRFTISRDDSKNSLYLQMNSLKTEDTAVYYCAREGDYFDYWGQGTLVTVSS
B18: TPP-24766 (antibody, V domains shown)
VH: EVQLVESGGGLVQPGGSLRLSCAASGFTFSNAYMSWVRQAPGKGLEWVGRIKSKTDGGTTDYAAPVKGRFTISRDDSKNSLYLQMNSLKTEDTAVYYCAREGDYFDYWGQGTLVTVSS
B19: TPP-24750 (antibody, V domains shown)
VH: EVQLVESGGGLVQPGGSLRLSCAASGFTFSNYYISWVRQAPGKGLEWVGRIKSKTDGGTTDYAAPVKGRFTISRDDSKNSLYLQMNSLKTEDTAVYYCAREGDYFDYWGQGTLVTVSS
B20: TPP-24745 (antibody, V domains shown)
VH: EVQLVESGGGLVQPGGSLRLSCAASGFTFSNYYINWVRQAPGKGLEWVSYISSSSSTIYYADSVKGRFTISRDDSKNSLYLQMNSLKTEDTAVYYCAREGDYFDYWGQGTLVTVSS
B21: TPP-24737 (antibody, V domains shown)
VH: EVQLVESGGGLVQPGGSLRLSCAASGFTFSNYYMNWVRQAPGKGLEWVSYISSSSSTIYYADSVKGRFTISRDDSKNSLYLQMNSLKTEDTAVYYCAREGDYFDYWGQGTLVTVSS
B22: TPP-24740 (antibody, V domains shown)
VH: EVQLVESGGGLVQPGGSLRLSCAASGFTFSNYYMSWVRQAPGKGLEWVGDIRLKSNNYEKHYAESVKGRFTISRDDSKNSLYLQMNSLKTEDTAVYYCAREGDYFDYWGQGTLVTVSS
B23: TPP-24744 (antibody, V domains shown)
VH: EVQLVESGGGLVQPGGSLRLSCAASGFTFSNYYINWVRQAPGKGLEWVGDIRLKSNNYEKHYAESVKGRFTISRDDSKNSLYLQMNSLKTEDTAVYYCAREGDYFDYWGQGTLVTVSS

The first assay addresses T1, plasma-derived human activated protein C (APC) (UniProt P04070 43-461).
T1 chain: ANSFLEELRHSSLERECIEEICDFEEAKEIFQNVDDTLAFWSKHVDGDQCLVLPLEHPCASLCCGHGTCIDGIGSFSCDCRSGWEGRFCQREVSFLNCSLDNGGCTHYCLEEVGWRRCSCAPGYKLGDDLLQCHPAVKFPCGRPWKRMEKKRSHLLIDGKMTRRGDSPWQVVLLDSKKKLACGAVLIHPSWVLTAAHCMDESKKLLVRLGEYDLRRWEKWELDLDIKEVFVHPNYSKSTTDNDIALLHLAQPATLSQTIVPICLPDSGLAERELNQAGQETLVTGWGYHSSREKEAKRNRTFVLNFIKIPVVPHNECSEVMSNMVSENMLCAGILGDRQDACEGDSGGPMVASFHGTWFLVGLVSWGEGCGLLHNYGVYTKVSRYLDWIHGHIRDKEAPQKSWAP
In words: SPR. (SPR reads the build-up and loss of mass on a sensor chip optically.)
The molecule B1 showed a Kd of 169 nM.
Molecule B2 returned a dissociation constant Kd of 12.9 nM.
B3 showed a dissociation constant Kd of 13.2 nM.
Regarding B4, the dissociation constant Kd amounted to 13.5 nM. The Kd values of the last two molecules are within 1.5-fold of each other.
On the same count and under the same terms, with B5 the figure was 8.79 nM.
In turn, B6 had a Kd of 142 nM.
B7: binding was characterised by a dissociation constant (Kd) of 11.2 nM.
In turn, B8 displayed a Kd of 13.5 nM.
On to B9, for which the Kd was 12.8 nM.
In turn, B10 gave a dissociation constant (Kd) of 28.1 nM.
Still for that read-out and setting: for B11 the value was 27.5 nM; for B12, 30.5 nM; for B13, 19.8 nM.
B14 gave a Kd of 31.1 nM.

Another assay deals with T1, plasma-derived human activated protein …. In words: SPR; head prints nM; kd/ka gives M.
For B2, binding was put at a Kd of 40 nM.

For the next assay the target is unchanged. Briefly: SPR. The source holds these as a separate data set.
B15 showed a Kd of 0.737 nM.
The molecule B16 showed a Kd of 0.174 nM.
B17 came in with a Kd of 1.81 nM.
In turn, B18 displayed a Kd of 29700 nM.
Still for that read-out and setting: with B19 the figure was 13200 nM.
B20 came in with an equilibrium dissociation constant (Kd) of 76.4 nM.
The molecule B21 displayed a Kd of 12.5 nM.
Molecule B22 had a Kd of 60.5 nM. Compared with the last molecule, the Kd is about 4.8-fold higher.
Take B23: the Kd came to 22.8 nM.
